Test [1] addresses Thy-1 on the surface of primary rat cortical neurons (rat (endogenous in primary cortical neurons)) (UniProt P01830).
The target is the same in test [2]. The source holds these as a separate data set.
Test [3] shares this target. This is another data set of the same source.
Test [4] addresses Thy-1 on CAD cells (mouse (endogenous in CAD cells)) (UniProt P01831).
In test [5] the target is αVβ3 integrin on the cell surface of DITNC1 astrocytes (UniProt Q8R2H2).
Chain of UniProt Q8R2H2 (Q8R2H2 whole entry, looked up): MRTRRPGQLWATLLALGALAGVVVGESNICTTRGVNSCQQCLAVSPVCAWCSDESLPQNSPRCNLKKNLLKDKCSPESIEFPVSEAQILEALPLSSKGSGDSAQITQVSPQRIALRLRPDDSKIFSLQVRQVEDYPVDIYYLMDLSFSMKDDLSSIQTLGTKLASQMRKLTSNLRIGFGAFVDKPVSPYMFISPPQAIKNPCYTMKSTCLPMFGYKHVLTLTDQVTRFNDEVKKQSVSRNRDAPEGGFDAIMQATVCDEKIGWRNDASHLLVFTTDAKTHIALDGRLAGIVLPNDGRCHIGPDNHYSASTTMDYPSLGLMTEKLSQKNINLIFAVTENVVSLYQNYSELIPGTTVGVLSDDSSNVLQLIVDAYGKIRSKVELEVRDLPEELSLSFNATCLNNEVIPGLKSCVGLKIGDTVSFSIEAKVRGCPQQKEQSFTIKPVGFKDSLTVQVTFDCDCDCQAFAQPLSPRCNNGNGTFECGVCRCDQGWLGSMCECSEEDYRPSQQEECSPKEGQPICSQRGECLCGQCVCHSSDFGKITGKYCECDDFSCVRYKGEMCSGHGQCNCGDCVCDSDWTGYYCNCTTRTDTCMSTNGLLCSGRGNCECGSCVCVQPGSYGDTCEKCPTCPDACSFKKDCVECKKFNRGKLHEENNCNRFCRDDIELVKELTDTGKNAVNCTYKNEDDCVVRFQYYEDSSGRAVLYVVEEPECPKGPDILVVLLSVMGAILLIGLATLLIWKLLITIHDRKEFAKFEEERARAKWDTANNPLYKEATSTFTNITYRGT

Chain of UniProt P01830 (P01830 20-130): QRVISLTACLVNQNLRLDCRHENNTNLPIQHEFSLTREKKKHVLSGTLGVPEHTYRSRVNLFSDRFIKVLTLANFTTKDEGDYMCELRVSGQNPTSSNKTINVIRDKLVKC

For the molecule “αVβ3-Fc fusion protein (from UniProt P06756 31-1048; P05106 27-718)”, the percentage of axonal terminals collapsed in mature cortical neurons treated with αVβ3-Fc cross-linked with Protein A in test [1] was determined as 80%. The length of dendrites of cortical neurons (4–5 days in culture) treated with αVβ3-Fc-containing supernatant for 72 hours, compared with non-treated neurons; prevented by PI-PLC pre-treatment in test [2] was found to be 50 % decrease. This molecule also came in with a percentage of Thy-1 positive axonal terminals collapsed in mature cortical neurons (12–15 days in vitro) treated with αVβ3-Fc-containing supernatants in test [3] of 55%. In test [4], this molecule showed a length of processes of CAD cells on αVβ3-Fc-coated plates in comparison to controls of 40 % decrease.

B1: Thy-1 on CAD cells (natural protein)
chain: QKVTSLTACLVNQNLRLDCRHENNTKDNSIQHEFSLTREKRKHVLSGTLGIPEHTYRSRVTLSNQPYIKVLTLANFTTKDEGDYFCELQVSGANPMSSNKSISVYRDKLVKC
modifications: GPI anchor
B1 yielded a percentage of differentiated CAD cells (processes ≥15 µm) seeded over a monolayer of DITNC1 astrocytes, against ∼80% on plastic in test [5] of 35%.

For the origin of these results see publication PMC3316703.
